Here are results for 2 molecules from patent publication US6365154 (GlaxoSmithKline, dated 2002).

Experiment [1] addresses T1, recombinant Tie2 extracellular domain-Fc fusion (UniProt Q02763 23-748).
T1 construct: extracellular domain; also called Tie2-Fc; Tie2 receptor-Fc fusion; not shown: It is probably human IgG Fc: human IgG1 was added to remove anti-Fc mAbs, and the fusion was ca
Description: BIAcore SPR; mAb captured on rabbit anti-mouse IgG Fc, Tie2-Fc injected. The method, then:
The affinity of the purified mAbs was measured in the BIAcore. Using a flow rate of 10 ul/min, the mAb (diluted in HBS buffer) was injected over a rabbit anti-mouse IgG Fc surface, followed by buffer flow and the RU recorded. Tie2-Fc diluted in HBS buffer was then injected for 120s followed by buffer flow for 240s and regeneration of the sensor chip surface with an injection of 15 ul 0.1 M phosphoric acid. BIAcore software was used for association and dissociation-phase analysis. The murine monoclonal antibodies bound to soluble monomeric Tie2 receptor. The on-rates ($kass$) and off-rates ($kdiss$) were calculated.
Background: SPR reads the build-up and loss of mass on a sensor chip optically.

Experiment [2] concerns the target Tie2 receptor on HEL cells or HUVECs (human, UniProt Q02763 23-1124). Description: cell-based or functional assay.

Bounds are passed on as bounds.

T1 sequence (Q02763 23-748): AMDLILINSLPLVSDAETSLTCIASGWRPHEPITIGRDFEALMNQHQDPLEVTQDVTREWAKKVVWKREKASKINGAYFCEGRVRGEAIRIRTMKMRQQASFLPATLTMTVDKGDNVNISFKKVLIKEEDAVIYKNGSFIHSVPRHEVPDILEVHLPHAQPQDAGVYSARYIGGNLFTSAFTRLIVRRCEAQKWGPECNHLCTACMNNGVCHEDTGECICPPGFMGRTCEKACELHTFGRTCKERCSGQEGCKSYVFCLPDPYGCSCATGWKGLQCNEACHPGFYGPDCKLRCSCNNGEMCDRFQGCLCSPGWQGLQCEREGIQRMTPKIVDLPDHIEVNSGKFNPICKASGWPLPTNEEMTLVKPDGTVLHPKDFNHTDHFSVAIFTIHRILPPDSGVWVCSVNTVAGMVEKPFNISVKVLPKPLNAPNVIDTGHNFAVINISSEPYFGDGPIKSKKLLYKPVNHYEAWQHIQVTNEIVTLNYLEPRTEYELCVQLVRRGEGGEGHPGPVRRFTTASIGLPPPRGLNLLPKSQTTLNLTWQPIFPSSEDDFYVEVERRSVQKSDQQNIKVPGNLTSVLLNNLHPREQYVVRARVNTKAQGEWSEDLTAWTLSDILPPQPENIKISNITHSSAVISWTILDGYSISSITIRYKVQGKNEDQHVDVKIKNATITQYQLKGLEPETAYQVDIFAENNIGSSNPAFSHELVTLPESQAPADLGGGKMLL
Sequence of Tie2 receptor on HEL cells or HUVECs (Q02763 23-1124): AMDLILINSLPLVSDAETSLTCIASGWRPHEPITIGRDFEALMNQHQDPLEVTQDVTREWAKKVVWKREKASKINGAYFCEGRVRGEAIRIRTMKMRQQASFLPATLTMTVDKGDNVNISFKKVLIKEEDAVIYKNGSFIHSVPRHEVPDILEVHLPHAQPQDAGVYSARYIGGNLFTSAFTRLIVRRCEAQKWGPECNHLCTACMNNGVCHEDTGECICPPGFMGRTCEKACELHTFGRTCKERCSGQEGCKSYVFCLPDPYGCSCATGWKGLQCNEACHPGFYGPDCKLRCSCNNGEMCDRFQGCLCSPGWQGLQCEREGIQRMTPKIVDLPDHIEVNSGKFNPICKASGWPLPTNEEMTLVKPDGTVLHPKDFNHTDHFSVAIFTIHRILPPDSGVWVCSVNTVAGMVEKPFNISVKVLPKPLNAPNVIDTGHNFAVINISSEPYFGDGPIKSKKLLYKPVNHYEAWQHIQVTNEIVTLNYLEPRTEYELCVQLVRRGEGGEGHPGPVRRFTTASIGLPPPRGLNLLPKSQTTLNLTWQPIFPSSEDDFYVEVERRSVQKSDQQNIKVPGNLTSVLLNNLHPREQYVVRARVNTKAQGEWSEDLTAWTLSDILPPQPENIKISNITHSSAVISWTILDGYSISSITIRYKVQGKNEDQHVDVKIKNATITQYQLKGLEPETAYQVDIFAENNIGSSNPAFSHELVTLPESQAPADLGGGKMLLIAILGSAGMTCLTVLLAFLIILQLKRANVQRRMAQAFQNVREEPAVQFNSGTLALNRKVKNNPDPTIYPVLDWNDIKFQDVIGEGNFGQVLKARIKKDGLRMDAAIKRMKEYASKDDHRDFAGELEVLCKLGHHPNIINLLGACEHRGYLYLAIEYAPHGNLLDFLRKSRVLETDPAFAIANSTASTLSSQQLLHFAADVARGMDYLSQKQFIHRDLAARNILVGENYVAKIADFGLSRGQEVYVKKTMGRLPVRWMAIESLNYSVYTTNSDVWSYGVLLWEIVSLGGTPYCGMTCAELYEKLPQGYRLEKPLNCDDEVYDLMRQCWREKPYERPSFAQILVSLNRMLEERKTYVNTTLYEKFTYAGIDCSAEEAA

B1: murine monoclonal antibody 13H10 (antibody, V domains shown)
VH: QIQLVQSGPELKKPGETVKISCKASGYTFTDFSIHWVKQAPGKGLKWMGWINTETGETTYAEDFKGRFAFSLETSASTAYLQINNLKNEDTATYFCSRRYDYDTWFAYWGQGTLVTVS
VL: DIVMTQAALSVPVTPGESVSISCRSSSSLLHRNGNTYLYWFLQRPGQSPQLLIYRMSNLASGVPDRFSGSGSGTAFTLRISRVEAEDVGVYYCMQRLEYPFTFGGGTKLEIKR
notes: Constant regions are mouse IgG heavy and kappa light, going by the PCR primers; also called mAb 13H10; mAb 13H 10
The term Kd denotes the concentration at which binding is half-saturated. On to B1, for which the Kd in experiment [1] turned out to be 3.1 nM.

B2: murine monoclonal antibody 15B8 (antibody, V domains shown)
VH: QVQLQQPGVVLVMPGASVKLSCKASGYTFASYWMHWVKQRPGQGLEWIGEIDPSDSYRNYNQKFKGKATLTVDKSSSTVNMQLSSLTSEDSAVYYCAKTSGIGRAMDYWGQGTSVTVSS
VL: DIQMIQSPASLSASVGETVTITCRASENIYSFVTWYQQKQGKSPQLLVFNAKNLVEGVPSSFSGSGSGTQFSLKIDSLQPEDFGTYYCQHHYSIPYTFGGGTKLEMR
notes: Constant regions are mouse IgG heavy and kappa light, going by the PCR primers; also called mAb 15B8; mAb 1 B 8
B2: the “Tie2 receptor tyrosine phosphorylation (immunoprecipitation and anti-phosphotyrosine Western blot, ratio to Tie-2 staining)” value in experiment [2] is > 2 fold over basal. Besides, the Kd in experiment [1] was determined as 0.24 nM.
